The record followed here is PMC8212047 (Frontiers in Immunology, 2021).

B1: RGN10987 (antibody, V domains shown)
VH: QVQLVESGGGVVQPGRSLRLSCAASGFTFSNYAMYWVRQAPGKGLEWVAVISYDGSNKYYADSVKGRFTISRDNSKNTLYLQMNSLRTEDTAVYYCASGSDYGDYLLVYWGQGTLVTVSS
VL: QSALTQPASVSGSPGQSITISCTGTSSDVGGYNYVSWYQQHPGKAPKLMIYDVSKRPSGVSNRFSGSKSGNTASLTISGLQSEDEADYYCNSLTSISTWVFGGGTKLTVL
B2: RGN10933 (antibody, V domains shown)
VH: QVQLVESGGGLVKPGGSLRLSCAASGFTFSDYYMSWIRQAPGKGLEWVSYITYSGSTIYYADSVKGRFTISRDNAKSSLYLQMNSLRAEDTAVYYCARDRGTTMVPFDYWGQGTLVTVSS
VL: DIQMTQSPSSLSASVGDRVTITCQASQDITNYLNWYQQKPGKAPKLLIYAASNLETGVPSRFSGSGSGTDFTFTISGLQPEDIATYYCQQYDNLPLTFGGGTKVEIK
B3: CB6 (antibody, V domains shown)
VH: EVQLVESGGGLVQPGGSLRLSCAASGFTVSSNYMSWVRQAPGKGLEWVSVIYSGGSTFYADSVKGRFTISRDNSMNTLFLQMNSLRAEDTAVYYCARVLPMYGDYLDYWGQGTLVTVSS
VL: not shown
notes: source: produced and purified as previously described (29)

For this test, the target named is SARS-CoV-2 RBD (Wuhan-1) RBD-FC fusion protein (SARS-CoV-2, UniProt P0DTC2). In words: SPR. To be noted: both partners purified.
Regarding B1, the binding result is “binds”. The result for B2 reads “binds”; that for B3, “binds”.
